The record followed here is patent publication US20180140673A1.

In assay [1] the target is FGFR1c receptor/BKL complex on differentiated mouse 3T3-L1 adipocytes (mouse) (UniProt P16092). Nature of the assay: cell-based or functional assay.
Assay [2] concerns the target FGF receptor/BKL complex on HEK293 cells overexpressing human beta-klotho (BKL) (human) (UniProt Q86Z14). Kind of assay: cell-based or functional assay.

Sequence of FGF receptor/BKL complex on HEK293 cells overexpressing human beta-klotho (BKL) (human) (Q86Z14 whole entry, one chain of several): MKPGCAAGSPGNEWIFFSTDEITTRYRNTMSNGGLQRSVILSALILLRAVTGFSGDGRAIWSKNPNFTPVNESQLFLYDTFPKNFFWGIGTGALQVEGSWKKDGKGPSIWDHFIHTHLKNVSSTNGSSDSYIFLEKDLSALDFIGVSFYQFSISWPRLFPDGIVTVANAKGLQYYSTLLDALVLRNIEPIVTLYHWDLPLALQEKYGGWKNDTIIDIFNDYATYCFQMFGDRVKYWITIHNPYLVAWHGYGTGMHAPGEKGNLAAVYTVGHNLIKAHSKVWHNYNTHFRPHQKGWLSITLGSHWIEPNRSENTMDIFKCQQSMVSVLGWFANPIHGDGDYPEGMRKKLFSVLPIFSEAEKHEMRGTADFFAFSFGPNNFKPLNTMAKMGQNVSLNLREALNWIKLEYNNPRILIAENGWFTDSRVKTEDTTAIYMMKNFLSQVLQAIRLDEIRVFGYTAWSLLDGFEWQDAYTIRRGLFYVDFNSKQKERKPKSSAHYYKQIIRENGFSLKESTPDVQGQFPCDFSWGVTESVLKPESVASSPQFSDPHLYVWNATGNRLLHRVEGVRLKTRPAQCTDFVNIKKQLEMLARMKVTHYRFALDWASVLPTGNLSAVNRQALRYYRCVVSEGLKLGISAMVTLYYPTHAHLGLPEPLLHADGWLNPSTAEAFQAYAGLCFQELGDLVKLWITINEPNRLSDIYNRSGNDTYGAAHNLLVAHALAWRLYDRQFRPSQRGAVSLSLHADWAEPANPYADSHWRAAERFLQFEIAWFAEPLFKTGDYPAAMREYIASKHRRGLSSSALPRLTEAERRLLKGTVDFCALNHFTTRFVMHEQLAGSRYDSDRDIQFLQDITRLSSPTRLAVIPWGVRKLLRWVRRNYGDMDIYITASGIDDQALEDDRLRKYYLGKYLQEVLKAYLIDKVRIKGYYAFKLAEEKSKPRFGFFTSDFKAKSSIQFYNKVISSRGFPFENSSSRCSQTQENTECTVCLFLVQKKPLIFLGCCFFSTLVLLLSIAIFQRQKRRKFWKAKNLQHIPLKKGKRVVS
Sequence of FGFR1c receptor/BKL complex on differentiated mouse 3T3-L1 adipocytes (mouse) (P16092 22-822, chain 1 of 2): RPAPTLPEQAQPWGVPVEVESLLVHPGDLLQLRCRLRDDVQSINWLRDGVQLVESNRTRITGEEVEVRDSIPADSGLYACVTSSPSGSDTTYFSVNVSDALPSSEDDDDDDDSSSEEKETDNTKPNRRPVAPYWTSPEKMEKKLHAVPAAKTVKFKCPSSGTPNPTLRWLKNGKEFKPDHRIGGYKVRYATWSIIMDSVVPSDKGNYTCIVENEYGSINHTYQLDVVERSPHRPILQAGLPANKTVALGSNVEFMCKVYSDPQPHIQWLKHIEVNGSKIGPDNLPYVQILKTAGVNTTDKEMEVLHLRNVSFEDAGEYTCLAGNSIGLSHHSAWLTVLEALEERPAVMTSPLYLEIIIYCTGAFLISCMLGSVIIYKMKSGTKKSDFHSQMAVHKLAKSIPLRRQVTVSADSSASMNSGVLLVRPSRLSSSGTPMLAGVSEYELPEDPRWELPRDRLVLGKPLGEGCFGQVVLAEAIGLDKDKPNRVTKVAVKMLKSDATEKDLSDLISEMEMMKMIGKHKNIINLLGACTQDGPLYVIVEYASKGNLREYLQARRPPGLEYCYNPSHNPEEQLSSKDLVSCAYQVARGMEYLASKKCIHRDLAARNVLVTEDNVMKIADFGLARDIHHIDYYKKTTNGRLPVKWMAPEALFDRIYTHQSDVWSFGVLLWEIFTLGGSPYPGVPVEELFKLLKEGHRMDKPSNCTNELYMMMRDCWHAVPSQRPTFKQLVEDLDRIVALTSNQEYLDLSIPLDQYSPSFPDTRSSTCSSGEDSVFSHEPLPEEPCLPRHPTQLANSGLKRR
Sequence of FGFR1c receptor/BKL complex on differentiated mouse 3T3-L1 adipocytes (mouse) (Q99N32 whole entry, chain 2 of 2, further chain): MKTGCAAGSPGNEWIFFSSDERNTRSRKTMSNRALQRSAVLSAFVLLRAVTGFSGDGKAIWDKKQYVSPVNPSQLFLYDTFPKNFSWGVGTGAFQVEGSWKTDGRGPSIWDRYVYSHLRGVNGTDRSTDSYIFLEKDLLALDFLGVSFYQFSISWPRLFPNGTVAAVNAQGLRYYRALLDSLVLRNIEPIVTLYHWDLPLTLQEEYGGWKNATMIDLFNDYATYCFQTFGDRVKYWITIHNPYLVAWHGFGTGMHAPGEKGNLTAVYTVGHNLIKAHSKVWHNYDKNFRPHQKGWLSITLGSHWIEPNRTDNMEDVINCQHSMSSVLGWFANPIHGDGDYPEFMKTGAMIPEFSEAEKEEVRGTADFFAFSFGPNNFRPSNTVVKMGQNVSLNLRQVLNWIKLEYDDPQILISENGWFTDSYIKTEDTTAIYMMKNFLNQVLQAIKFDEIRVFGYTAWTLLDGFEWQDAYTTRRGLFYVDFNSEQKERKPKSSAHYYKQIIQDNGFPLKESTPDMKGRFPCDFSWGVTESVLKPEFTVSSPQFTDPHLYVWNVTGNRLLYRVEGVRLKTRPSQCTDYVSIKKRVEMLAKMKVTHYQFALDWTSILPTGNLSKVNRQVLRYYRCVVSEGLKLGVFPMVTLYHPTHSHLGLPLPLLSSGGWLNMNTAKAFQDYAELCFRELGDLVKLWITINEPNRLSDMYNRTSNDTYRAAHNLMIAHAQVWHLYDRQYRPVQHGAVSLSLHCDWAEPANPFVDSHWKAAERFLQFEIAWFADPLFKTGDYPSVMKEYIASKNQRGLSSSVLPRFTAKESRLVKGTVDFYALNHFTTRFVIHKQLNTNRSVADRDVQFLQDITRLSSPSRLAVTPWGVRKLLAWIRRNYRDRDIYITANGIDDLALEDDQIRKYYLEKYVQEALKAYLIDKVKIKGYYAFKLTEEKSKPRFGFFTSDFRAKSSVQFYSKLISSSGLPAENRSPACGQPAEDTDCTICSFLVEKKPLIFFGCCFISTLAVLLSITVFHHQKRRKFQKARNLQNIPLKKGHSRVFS

As for “S{Beta-181}-[2-[2-[[2-[2-[2-[[2-[2-[2-[[(4S)-4-carboxy-4-(15-carboxypentadecanoyl-amino)butanoyl]amino]ethoxy]ethoxy]acetyl]amino]ethoxy]ethoxy]acetyl]amino]-ethylamino]-2-oxoethyl]-Ala[Gln121,Leu168,Cys181]FGF21 (from UniProt Q9NSA1 29-208) (ligand)”, in assay [1], the Glucose uptake EC50 (nM), 3T3-L1 adipocytes came out at 31 nM and the Glucose uptake Emax (%), 3T3-L1 adipocytes turned out to be 61%. Besides, in assay [2], the EC50 (0.1% HSA) (nM), pERK, HEK293/BKL cells turned out to be 72 nM and the EC50 (nM), pERK, HEK293/BKL cells came out at 55 nM.

As for “S{Beta-181}-[2-[2-[[2-[2-[2-[[2-[2-[2-[[(4S)-4-carboxy-4-(17-carboxyheptadecanoyl-amino)butanoyl]amino]ethoxy]ethoxy]acetyl]amino]ethoxy]ethoxy]acetyl]amino]-ethylamino]-2-oxoethyl]-Ala[Gln121,Leu168,Cys181]FGF21 (from UniProt Q9NSA1 29-208) (ligand)”, in assay [1], the Glucose uptake EC50 (nM), 3T3-L1 adipocytes stood at 56 nM and the Glucose uptake Emax (%), 3T3-L1 adipocytes came to 73%. In assay [2], this substance showed an EC50 (0.1% HSA) (nM), pERK, HEK293/BKL cells of 170 nM and an EC50 (nM), pERK, HEK293/BKL cells of 42 nM.

Turning to “S{Beta-181}-[2-[2-[[2-[2-[2-[[2-[2-[2-[[(4S)-4-carboxy-4-(19-carboxynonadecanoyl-amino)butanoyl]amino]ethoxy]ethoxy]acetyl]amino]ethoxy]ethoxy]acetyl]amino]-ethylamino]-2-oxoethyl]-Ala[Gln121,Leu168,Cys181]FGF21 (from UniProt Q9NSA1 29-208) (ligand)”, in assay [1], the Glucose uptake EC50 (nM), 3T3-L1 adipocytes stood at 410 nM and the Glucose uptake Emax (%), 3T3-L1 adipocytes worked out at 57%. In assay [2], the EC50 (0.1% HSA) (nM), pERK, HEK293/BKL cells is 434 nM and the EC50 (nM), pERK, HEK293/BKL cells is 58 nM.

For the substance “{Beta-178}-[2-[2-[[2-[2-[2-[[2-[2-[2-[[(4S)-4-carboxy-4-(15-carboxypentadecanoyl-amino)butanoyl]amino]ethoxy]ethoxy]acetyl]amino]ethoxy]ethoxy]acetyl]amino]-ethylamino]-2-oxoethyl]-Ala[Gln121,Leu168,Cys178]FGF21 (from UniProt Q9NSA1 29-209) (ligand)”, in assay [1], the Glucose uptake EC50 (nM), 3T3-L1 adipocytes is 186 nM and the Glucose uptake Emax (%), 3T3-L1 adipocytes amounted to 59%. In assay [2], the EC50 (0.1% HSA) (nM), pERK, HEK293/BKL cells is 137 nM and the EC50 (nM), pERK, HEK293/BKL cells came to 167 nM.
